In patent publication US20190040127A1 (University of California, published 2019):

How the values were obtained:
[1] = biological target: T1, Epithelial Membrane Protein 2 (EMP2) (human, UniProt P54851 1-167); assay: flow cytometry on SUM149 cells, nonlinear regression (FIG. 4)
T1 construct: Endogenous EMP2 on SUM149 or MDA-MB-468 breast cancer cells
T1 sequence: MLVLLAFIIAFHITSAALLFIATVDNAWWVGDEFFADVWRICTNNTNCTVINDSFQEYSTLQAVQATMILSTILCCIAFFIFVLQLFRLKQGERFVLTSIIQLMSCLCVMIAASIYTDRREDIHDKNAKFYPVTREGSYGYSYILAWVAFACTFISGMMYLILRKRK
Experimental: (§1) A comparison of anti-EMP2 Variant 1 and PG-101 binding affinity for EMP2 was carried out. […] PG-101 and Variant 1 binding to EMP2 was determined using SUM149 and flow cytometry. Variant 1 retains binding to EMP2 with improved affinity. Flow cytometry was used to determine the ability of both antibodies to bind to EMP2 on SUM149 cells.

[2] = biological target: T1, Epithelial Membrane Protein 2 (EMP2); assay: flow cytometry on MDA-MB-468 cells (FIG. 2)
[3] = biological target: T1, Epithelial Membrane Protein 2 (EMP2); assay: flow cytometry on SUM149 cells (FIG. 4)
Experimental: as §1

B1: PG-101 Parental (antibody, human IgG1, kappa, V domains shown)
VH: QVQLVQSGGGVVQPGRSLRLSCAASGFTFSSYAMHWVRQAPGKGLEWVAVISYDGSNKYYADSVKGRFTISRDNSKNTLYLQMNSLRAEDTAVYYCARDRRGRKSAGIDYWGQGTLVTVSS
VL: DIQMTQSPSSLSASVGDRVTITCQASQDISNYLNWYQQKPGKAPKLLIYAASSLQSGVPSRFSGSGSGTDFTLTISSLQPEDFATYYCLQDYNGWTFGQGTKVDIKR
notes: Full IgG1/kappa made in HEK293 cells; also called parental antibody
[1]
  Kd: 2.6 µg/mL

B2: PG-101 Variant 2 (antibody, human IgG1, kappa, V domains shown)
VH: QVQLVQSGGGVVQPGRSLRLSCAASGFTFSSYAMHWVRQAPGKGLEWVAVISYDGSNKYYADSVKGRFTISRDNSKNTLYLQMNSLRAEDTAVYYCARDRRGRKSAGIDYWGQGTLVTVSS
VL: DIQMTQSPSSLSASVGDRVTITCQASQDISNYLNWYQQKPGKAPKLLIYAASSLQSGVPSRFSGSGSGTDFTLTISSLQPEDFATYYCLQDYNLWTFGQGTKVDIKR
notes: Full IgG1/kappa made in HEK293 cells
[2]
  binding result: binds

B3: PG-101 Variant 1 (antibody, human IgG1, kappa, V domains shown)
VH: QVQLVQSGGGVVQPGRSLRLSCAASGFTFSSYAMHWVRQAPGKGLEWVAVISYDGSNKYYADSVKGRFTISRDNSKNTLYLQMNSLRAEDTAVYYCARDRRGRKSAGIDYWGQGTLVTVSS
VL: DIQMTQSPSSLSASVGDRVTITCQASQDISNYLNWYQQKPGKAPKLLIYAASSLQSGVPSRFSGSGSGTDFTLTISSLQPEDFATYYCLQDYSGWTFGQGTKVDIKR
notes: Full IgG1/kappa made in HEK293 cells; also called anti-EMP2 Variant 1; PG-201
[3]
  fold increase in binding against the parental antibody PG-101: > 2 fold
